The text below walks through data of EP4707301A1 (AJOU UNIVERSITY INDUSTRY-ACADEMIC COOPERATION FOUNDATION, dated 2026).

Assay [1] concerns the target T1, human IL-5Rα expressed on the K562/IL-5Rα cell line (human, UniProt Q01344 21-420).
T1 sequence (looked up): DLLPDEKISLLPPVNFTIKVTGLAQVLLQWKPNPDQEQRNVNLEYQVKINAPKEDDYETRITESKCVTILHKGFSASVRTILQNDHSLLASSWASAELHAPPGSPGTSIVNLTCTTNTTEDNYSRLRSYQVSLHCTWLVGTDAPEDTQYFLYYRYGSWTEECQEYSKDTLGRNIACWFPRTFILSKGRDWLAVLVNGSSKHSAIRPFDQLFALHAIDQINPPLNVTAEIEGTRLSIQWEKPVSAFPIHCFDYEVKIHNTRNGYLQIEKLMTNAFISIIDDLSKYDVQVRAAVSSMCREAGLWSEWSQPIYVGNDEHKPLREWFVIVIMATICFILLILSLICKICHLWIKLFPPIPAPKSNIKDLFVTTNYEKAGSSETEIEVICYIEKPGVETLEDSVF
Nature of the assay: cell-based or functional assay.

Assay [2] deals with human CD3ε on activated PBMC (human, UniProt P07766 23-207). As to the kind of experiment: cell-based or functional assay.
Sequence of human CD3ε on activated PBMC (P07766 23-207): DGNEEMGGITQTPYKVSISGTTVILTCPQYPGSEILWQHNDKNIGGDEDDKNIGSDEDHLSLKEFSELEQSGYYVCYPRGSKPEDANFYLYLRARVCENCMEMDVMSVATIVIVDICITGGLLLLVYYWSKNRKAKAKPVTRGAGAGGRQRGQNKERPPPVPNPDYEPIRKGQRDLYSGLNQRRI
Assay [3] addresses T2, CD3ε, commercially available (sinobiological, 10977-H08H) (UniProt P07766 23-126).
T2 construct: Bought protein
As to the kind of experiment: BLI (Octet QKe), antibody captured on AHC sensor, antigen 125-4,000 nM, 1:1 model. For orientation: BLI is a label-free optical method that tracks binding on a fibre tip over time.

Assay [4] concerns the target T3, hIL-5Rα, purified recombinant protein (human, UniProt Q01344 21-342, limits assumed).
T3 construct: Soluble antigen of the Octet experiments
T3 sequence (looked up): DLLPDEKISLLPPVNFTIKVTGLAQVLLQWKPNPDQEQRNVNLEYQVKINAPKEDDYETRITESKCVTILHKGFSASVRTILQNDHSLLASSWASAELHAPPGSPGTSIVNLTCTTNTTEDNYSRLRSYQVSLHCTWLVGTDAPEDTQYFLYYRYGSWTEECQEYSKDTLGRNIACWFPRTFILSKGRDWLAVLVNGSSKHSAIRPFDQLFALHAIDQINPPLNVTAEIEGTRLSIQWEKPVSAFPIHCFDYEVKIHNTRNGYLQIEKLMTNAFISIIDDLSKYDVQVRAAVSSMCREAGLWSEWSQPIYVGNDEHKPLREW
The description is as above.

Assay [5] addresses T3, hIL-5Rα, purified recombinant protein. As to the kind of experiment: BLI (Octet QKe), ratio of the KD values of Table 2.

T2 sequence (P07766 23-126 limits assumed): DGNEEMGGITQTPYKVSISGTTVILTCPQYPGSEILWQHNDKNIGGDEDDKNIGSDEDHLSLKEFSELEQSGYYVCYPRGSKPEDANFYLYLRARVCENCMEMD

B1: IL-5Rα×CD3ε-BiTE(L)/scFv-Fc (bispecific antibody, human IgG1)
chain 1: DIQMTQSPSTLSASVGDRVTITCKASQNVGTAVAWYQQKPGKAPKLLIYWASTRHTGVPDRFSGSGSGTDFTLTISSLQPDDFATYYCQQFGRYPYTFGSGTKVEVKGGGGSGGGGSGGGGSQVQLVQSGAEVKKPGSSVKVSCKASGYTFTSYWINWVRQAPGQGLEWIGHIYPNKNENYYNHKFKDKATLTVDKSTNTAYMELSSLRSEDTAVYYCTREFYGRQYYQAMDYWGQGTTLTVSSGGGGSQAVVTQESALTTSPGETVTLTCRSSTGAVTTSNYANWVQEKPDHLFTGLIGGTNKRAPGVPARFSGSLIGDKAALTITGAQTEDEAIYFCALWYSNLWVFGGGTKLTVLGGGGSGGGGSGGGGSEVQLVESGGGLVQPKGSLKLSCAASGFTFNTYAMNWVRQAPGKGLEWVARIRSKYNNYATYYADSVKDRFTISRDDSQSILYLQMNNLKTEDTAMYYCVRHGNFGNSYVSWFAYWGQGTLVTVSSEPKSCDKTHTCPPCPAPEFEGGPSVFLFPPKPKDTLMISRTPEVTCVVVAVSHEDPEVKFNWYVDGVEVHNAKTKPREEQYNSTYRVVSVLTVLHQDWLNGKEYKCKVSNKALPAPIEKTISKAKGQPREPQVYTLPPSRDELTENQVSLTCLVKGFYPSDIAVEWESNGQPENNYKTTPPVLDSDGSFFLYSWLTVDKSRWQQGNVFSCSVMHEALHNHYTQKSLSLSPGK
chain 2: QVQLVQSGAEVKKPGSSVKVSCKASGYTFTSYWINWVRQAPGQGLEWIGHIYPNKNENYYNHKFKDKATLTVDKSTNTAYMELSSLRSEDTAVYYCTREFYGRQYYQAMDYWGQGTTLTVSSGGGGSGGGGSGGGGSDIQMTQSPSTLSASVGDRVTITCKASQNVGTAVAWYQQKPGKAPKLLIYWASTRHTGVPDRFSGSGSGTDFTLTISSLQPDDFATYYCQQFGRYPYTFGSGTKVEVKEPKSCDKTHTCPPCPAPEFEGGPSVFLFPPKPKDTLMISRTPEVTCVVVAVSHEDPEVKFNWYVDGVEVHNAKTKPREEQYNSTYRVVSVLTVLHQDWLNGKEYKCKVSNKALPAPIEKTISKAKGQPREPRVYTLPPSRDELTKNQVSLTCLVKGFYPSDIAVEWESNGQPENNYKTTPPVLVSDGSFTLYSKLTVDKSRWQQGNVFSCSVMHEALHNHYTQKSLSLSPGK
notes: Heterodimeric IgG1 Fc with EW-RVT and FEA mutations
Regarding B1, the “24hr EC50 of T cell-mediated cytotoxicity (LDH release) against K562/IL-5Rα, activated PBMC, E:T 5:1” value (shortened to “24hr EC50”) in assay [1] stood at 0.0147 nM. The “IFN-γ EC50 (pM), ELISA of supernatant after 24 h co-culture of activated PBMC and K562/IL-5Rα” value (“IFN-γ EC50 (pM), ELISA of supernatant” for short) in assay [2] was 31000 pM. In assay [3], this molecule had a Kd of 4.62 nM, an off-rate constant (koff) of 0.000827 s⁻¹ and a kon of 179000 M⁻¹ s⁻¹. Besides, in assay [4], the Kd stood at 22.9 nM, the koff was 0.000708 s⁻¹ and the kon is 30900 M⁻¹ s⁻¹.

B2: IL-5Rα×CD3ε-scFv(L)/scFv-Fc (bispecific antibody, human IgG1)
chain 1: QAVVTQESALTTSPGETVTLTCRSSTGAVTTSNYANWVQEKPDHLFTGLIGGTNKRAPGVPARFSGSLIGDKAALTITGAQTEDEAIYFCALWYSNLWVFGGGTKLTVLGGGGSGGGGSGGGGSEVQLVESGGGLVQPKGSLKLSCAASGFTFNTYAMNWVRQAPGKGLEWVARIRSKYNNYATYYADSVKDRFTISRDDSQSILYLQMNNLKTEDTAMYYCVRHGNFGNSYVSWFAYWGQGTLVTVSSEPKSCDKTHTCPPCPAPEFEGGPSVFLFPPKPKDTLMISRTPEVTCVVVAVSHEDPEVKFNWYVDGVEVHNAKTKPREEQYNSTYRVVSVLTVLHQDWLNGKEYKCKVSNKALPAPIEKTISKAKGQPREPQVYTLPPSRDELTENQVSLTCLVKGFYPSDIAVEWESNGQPENNYKTTPPVLDSDGSFFLYSWLTVDKSRWQQGNVFSCSVMHEALHNHYTQKSLSLSPGK
chain 2: DIQMTQSPSTLSASVGDRVTITCKASQNVGTAVAWYQQKPGKAPKLLIYWASTRHTGVPDRFSGSGSGTDFTLTISSLQPDDFATYYCQQFGRYPYTFGSGTKVEVKGGGGSGGGGSGGGGSQVQLVQSGAEVKKPGSSVKVSCKASGYTFTSYWINWVRQAPGQGLEWIGHIYPNKNENYYNHKFKDKATLTVDKSTNTAYMELSSLRSEDTAVYYCTREFYGRQYYQAMDYWGQGTTLTVSSEPKSCDKTHTCPPCPAPEFEGGPSVFLFPPKPKDTLMISRTPEVTCVVVAVSHEDPEVKFNWYVDGVEVHNAKTKPREEQYNSTYRVVSVLTVLHQDWLNGKEYKCKVSNKALPAPIEKTISKAKGQPREPRVYTLPPSRDELTKNQVSLTCLVKGFYPSDIAVEWESNGQPENNYKTTPPVLVSDGSFTLYSKLTVDKSRWQQGNVFSCSVMHEALHNHYTQKSLSLSPGK
notes: Built from 5R65.7 and humanized SP34 scFvs with (G4S)3 linkers and an IgG1 hinge; Heterodimeric IgG1 Fc with EW-RVT and FEA mutations; also called IL-5Rα×CD3α-scFv(L)/scFv-Fc
For the molecule B2, the “24hr EC50” value in assay [1] came out at 0.000857 nM. Further, the “IFN-γ EC50 (pM), ELISA of supernatant” value in assay [2] stood at 770 pM. The “fold higher binding affinity for IL-5Rα than the Diabody-Fc format” value in assay [5] was around 2.1 fold. Besides, in assay [3], binding was characterised by a dissociation constant (Kd) of 3.61 nM, the koff worked out at 0.000634 s⁻¹ and the on-rate (kon) is 176000 M⁻¹ s⁻¹. Moreover, in assay [4], the Kd amounted to 59.8 nM, the koff is 0.000171 s⁻¹ and the kon turned out to be 2850 M⁻¹ s⁻¹.

B3: IL-5Rα×CD3ε-IgG analog (bispecific antibody)
heavy 1: QVQLVQSGAEVKKPGSSVKVSCKASGYTFTSYWINWVRQAPGQGLEWIGHIYPNKNENYYNHKFKDKATLTVDKSTNTAYMELSSLRSEDTAVYYCTREFYGRQYYQAMDYWGQGTTLTVSSASTKGPSVFPLAPSSKSTSGGTAALGCLVKDYFPEPVTVSWNSGALTSGVHTFPAVLQSSGLYSLSSVVTVPSSSLGTQTYICNVNHKPSNTKVDKKVEPKSCDKTHTCPPCPAPEFEGGPSVFLFPPKPKDTLMISRTPEVTCVVVAVSHEDPEVKFNWYVDGVEVHNAKTKPREEQYNSTYRVVSVLTVLHQDWLNGKEYKCKVSNKALPAPIEKTISKAKGQPREPRVYTLPPSRDELTKNQVSLTCLVKGFYPSDIAVEWESNGQPENNYKTTPPVLVSDGSFTLYSKLTVDKSRWQQGNVFSCSVMHEALHNHYTQKSLSLSPGK
light: DIQMTQSPSTLSASVGDRVTITCKASQNVGTAVAWYQQKPGKAPKLLIYWASTRHTGVPDRFSGSGSGTDFTLTISSLQPDDFATYYCQQFGRYPYTFGSGTKVEVKRTVAAPSVFIFPPSDEQLKSGTASVKCLLNNFYPREAKVQWKVDNALQSGNSQESVTEQDSKDSTYSLSSTLTLSKADYEKHKVYACEVTHQGLSSPVTKSFNRGEC
heavy 2: not shown
chain: QAVVTQESALTTSPGETVTLTCRSSTGAVTTSNYANWVQEKPDHLFTGLIGGTNKRAPGVPARFSGSLIGDKAALTITGAQTEDEAIYFCALWYSNLWVFGGGTKLTVLRTVAAPSVFIFPPSDEQLKSGTASVECLLNNFYPREAKVQWKVDNALQSGNSQESVTEQDSKDSTYSLSSTLTLSKADYEKHKVYACEVTHQGLSSPVTKSFNRGEC
notes: Four-chain molecule: SP34 heavy and light chains and 5R65.7 heavy and light chains, with complementary CH1/CL mutations, EW-RVT and FEA
B3: in assay [1], the “24hr EC50” value was found to be 0.0231 nM. Moreover, the “IFN-γ EC50 (pM), ELISA of supernatant” value in assay [2] was 2210 pM. In assay [3], this molecule had a Kd of 1.71 nM, a koff of 0.000474 s⁻¹ and a kon of 278000 M⁻¹ s⁻¹. For the same molecule, in assay [4], the Kd was 30.5 nM, the koff amounted to 0.00011 s⁻¹ and the kon stood at 3610 M⁻¹ s⁻¹.

B4: IL-5Rα×CD3ε-Diabody-Fc (bispecific antibody)
chain 1: DIQMTQSPSTLSASVGDRVTITCKASQNVGTAVAWYQQKPGKAPKLLIYWASTRHTGVPDRFSGSGSGTDFTLTISSLQPDDFATYYCQQFGRYPYTFGSGTKVEVKGGGSGGGGEVQLVESGGGLVQPKGSLKLSCAASGFTFNTYAMNWVRQAPGKGLEWVARIRSKYNNYATYYADSVKDRFTISRDDSQSILYLQMNNLKTEDTAMYYCVRHGNFGNSYVSWFAYWGQGTLVTVSSGCPPCPAPEFEGGPSVFLFPPKPKDTLMISRTPEVTCVVVAVSHEDPEVKFNWYVDGVEVHNAKTKPREEQYNSTYRVVSVLTVLHQDWLNGKEYKCKVSNKALPAPIEKTISKAKGQPREPQVYTLPPSRDELTENQVSLTCLVKGFYPSDIAVEWESNGQPENNYKTTPPVLDSDGSFFLYSWLTVDKSRWQQGNVFSCSVMHEALHNHYTQKSLSLSPGK
chain 2: QAVVTQESALTTSPGETVTLTCRSSTGAVTTSNYANWVQEKPDHLFTGLIGGTNKRAPGVPARFSGSLIGDKAALTITGAQTEDEAIYFCALWYSNLWVFGGGTKLTVLGGGSGGGGQVQLVQSGAEVKKPGSSVKVSCKASGYTFTSYWINWVRQAPGQGLEWIGHIYPNKNENYYNHKFKDKATLTVDKSTNTAYMELSSLRSEDTAVYYCTREFYGRQYYQAMDYWGQGTTLTVSSGCPPCPAPEFEGGPSVFLFPPKPKDTLMISRTPEVTCVVVAVSHEDPEVKFNWYVDGVEVHNAKTKPREEQYNSTYRVVSVLTVLHQDWLNGKEYKCKVSNKALPAPIEKTISKAKGQPREPRVYTLPPSRDELTKNQVSLTCLVKGFYPSDIAVEWESNGQPENNYKTTPPVLVSDGSFTLYSKLTVDKSRWQQGNVFSCSVMHEALHNHYTQKSLSLSPGK
notes: Built from 5R65.7 (anti-IL-5Rα) and humanized SP34 (anti-CD3ε); Heterodimeric IgG1 Fc with EW-RVT and L234F/L235E/D265A (FEA) mutations
Turning to B4, in assay [1], the “24hr EC50” value worked out at 0.00497 nM. The “IFN-γ EC50 (pM), ELISA of supernatant” value in assay [2] is 2340 pM. In assay [3], this molecule gave a Kd of 8.41 nM, a koff of 0.00141 s⁻¹ and a kon of 167000 M⁻¹ s⁻¹. In addition, in assay [4], the Kd was determined as 123 nM, the koff came to 0.000306 s⁻¹ and the kon was 2500 M⁻¹ s⁻¹.

In general, Kd refers to the free concentration of one partner at which half of the binding sites on the other are occupied at equilibrium, for simple one-to-one binding. The term koff denotes the first-order rate constant of dissociation. Broadly, the kon is the rate constant with which the complex forms.
